Laboratory results as given in patent US9765346B2, “Biological methods for preparing a fatty dicarboxylic acid” (Verdezyne, Inc., priority 2011, dated 2017).

Target: T1, Pox4 (Candida tropicalis, UniProt P06598)
T1 construct: made in house; host or cells: E. coli Rosetta II BL21, pET26b; crude cell lysate (10 ug per reaction)
Assay type: biochemical, Candida strain ATCC20336
Conditions: native isozyme
Procedure: To express an enzyme, a colony from each transformation of Rosetta cells was used to start a 5 ml overnight culture of LB containing the antibiotics kanamycin (to select for pET26b) and chloramphenicol (to select for a second plasmid found in Rosetta II cells that mediates improved translation of eukaryotic proteins expressed in E. coli) grown at 37° C. The next morning, the overnight culture was used to seed 30 ml of LB containing kanamycin and chloramphenicol to an OD600 reading of 0.1. The 30 ml cultures were grown at 37° C. for 2 hours and then placed on ice for 10 minutes. To induce expression, isopropyl-beta-D-thiogalactopyranoside (IPTG) was added to the culture to a final concentration of 0.1 mM. In some cases induction was performed using Novagen Overnight Express Autoinduction System 1 (CAT#71300-3). The cells were then shaken at 15° C. overnight to express the acyl CoA oxidase.
To test the activity of the acyl CoA oxidase, cells from the overnight induction were pelleted at 1046×g at 4° C. in 50 ml conical tubes. The cell pellets were resuspended in 1 ml of 50 mM KPO4, pH 7.6, 50 μM FAD buffer and then transferred to a 2 ml centrifuge tube. A Misonix Sonicator 3000 (QSonica, Newtown, Conn.) was used to lyse the cells, which were sonicated at a power setting of 2 for 2 pulses of 20 seconds each. […] The spectrophotometer was set to read for 5 minutes at 500 nm, 30° C. […]

B1: Pox4p: native acyl-CoA oxidase isozyme of Candida strain ATCC20336 (protein, UniProt P06598 2-709, looked up)
Acyl-coenzyme A oxidase 4: TFTKKNVSVSQGPDPRSSIQKERDSSKWNPQQMNYFLEGSVERSELMKALAQQMERDPILFTDGSYYDLTKDQQRELTAVKINRIARYREQESIDTFNKRLSLIGIFDPQVGTRIGVNLGLFLSCIRGNGTTSQLNYWANEKETADVKGIYGCFGMTELAHGSNVAGLETTATFDKESDEFVINTPHIGATKWWIGGAAHSATHCSVYARLIVDGQDYGVKTFVVPLRDSNHDLMPGVTVGDIGPKMGRDGIDNGWIQFSNVRIPRFFMLQKFCKVSAEGEVTLPPLEQLSYSALLGGRVMMVLDSYRMLARMSTIALRYAIGRRQFKGDNVDPNDPNALETQLIDYPLHQKRLFPYFVPPMSSPSVPSRLNTPSRPPWSNWTSPLKRTTPRLIFKSIDDMKSLFVDSGSLKSTATWLGAEAIDQCRQACGGHGHSSYNGFGKAYNDWVVQCTWEGDNNVLGMSVGKPIVKQVISIEDAGKTVRGSTAFLNQLKEYTGSNSSKVVLNTVADLDDIKTVIKAIEVAIIRLSQEAASIVKKESFDYVGAELVQLSKLKAHHYLLTEYIRRIDTFDQKELAPYLITLGKLYAATIVLDRFAGVFLTFNVASTEAITALASVQIPKLCAEVRPNVVAYTDSFQQSDMIVNSAIGRYDGDIYENYFDLVKLQNPPSKTKAPYSDALEAMLNRPTLDERERFQKSDETAAILSK
- substrate specificity: broad substrate specificity
